Measured values taken from PMC10786891, “Massively parallel profiling of RNA-targeting CRISPR-Cas13d”.

T1: EsCas13d, nuclease-dead (Eubacterium siraeum, UniProt B0MS50, R295A;H300A;R849A;H854A)
T1 sequence: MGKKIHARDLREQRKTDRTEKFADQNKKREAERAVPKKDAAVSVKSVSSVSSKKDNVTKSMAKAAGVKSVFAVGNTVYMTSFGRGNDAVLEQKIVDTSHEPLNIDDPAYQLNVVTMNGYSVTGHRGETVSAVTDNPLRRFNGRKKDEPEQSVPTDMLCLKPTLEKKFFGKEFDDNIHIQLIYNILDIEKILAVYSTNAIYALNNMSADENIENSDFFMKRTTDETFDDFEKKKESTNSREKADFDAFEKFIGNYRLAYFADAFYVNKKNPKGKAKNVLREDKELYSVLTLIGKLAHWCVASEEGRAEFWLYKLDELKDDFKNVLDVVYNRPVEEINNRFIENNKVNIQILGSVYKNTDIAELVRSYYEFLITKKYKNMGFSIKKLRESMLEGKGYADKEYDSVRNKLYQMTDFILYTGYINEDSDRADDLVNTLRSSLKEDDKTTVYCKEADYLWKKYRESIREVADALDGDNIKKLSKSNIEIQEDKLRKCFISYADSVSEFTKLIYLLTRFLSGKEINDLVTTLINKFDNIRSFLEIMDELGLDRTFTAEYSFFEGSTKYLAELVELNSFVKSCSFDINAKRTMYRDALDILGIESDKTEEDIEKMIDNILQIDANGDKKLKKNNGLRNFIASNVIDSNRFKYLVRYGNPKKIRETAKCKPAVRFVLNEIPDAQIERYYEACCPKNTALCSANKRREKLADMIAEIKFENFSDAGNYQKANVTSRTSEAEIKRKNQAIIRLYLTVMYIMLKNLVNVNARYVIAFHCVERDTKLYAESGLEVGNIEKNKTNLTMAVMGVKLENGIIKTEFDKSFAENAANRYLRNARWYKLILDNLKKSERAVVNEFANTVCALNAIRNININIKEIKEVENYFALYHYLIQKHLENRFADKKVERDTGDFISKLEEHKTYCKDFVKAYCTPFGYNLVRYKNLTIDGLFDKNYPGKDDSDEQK


Biological target: T1, EsCas13d, nuclease-dead
Assay: crRNA (strand 1, pre-loaded); Mg2+; 40 mM Tris-HCl pH 7.5, 150 mM NaCl, 6 mM MgCl2, 1 mM DTT, 0.1% Tween-20, 0.2 mg/ml BSA; 25 C; 10 min per concentration, then washed
Settings: tags: His6-TwinStrep-SUMO cleaved; N-terminal SNAP kept (SNAP-Surface 488); label: 3' end held by stalled T7 RNA polymerase

Binder | Kd [nM]
target 1 MT 5'PFS GGG 3'PFS AAU (mixed) RNA 1: CACCCGUGCAAAAAUGCAGGGGUCUAAAACUGAGCGGAUAACCUCUCUAUGG RNA 2: GGGAAUGGAUCCACAUCUACGAAUUCGGGCCAUAGAGAGGUUAUCCGCUCAAAUAGAUCGGAAGAGCACACGU | 28 ± 4.5
target 1 MT 5'PFS UUG 3'PFS AAC (mixed) RNA 1: CACCCGUGCAAAAAUGCAGGGGUCUAAAACUGAGCGGAUAACCUCUCUAUGG RNA 2: GGGAAUGGAUCCACAUCUACGAAUUCUUGCCAUAGAGAGGUUAUCCGCUCAAACAGAUCGGAAGAGCACACGU | ~41.5
target 1 MT 5'PFS GGC 3'PFS UGU (mixed) RNA 1: CACCCGUGCAAAAAUGCAGGGGUCUAAAACUGAGCGGAUAACCUCUCUAUGG RNA 2: GGGAAUGGAUCCACAUCUACGAAUUCGGCCCAUAGAGAGGUUAUCCGCUCAUGUAGAUCGGAAGAGCACACGU | 16.1 ± 2.25
target 1 MT 5'PFS CCU 3'PFS UCC (mixed) RNA 1: CACCCGUGCAAAAAUGCAGGGGUCUAAAACUGAGCGGAUAACCUCUCUAUGG RNA 2: GGGAAUGGAUCCACAUCUACGAAUUCCCUCCAUAGAGAGGUUAUCCGCUCAUCCAGAUCGGAAGAGCACACGU | 14 ± 5
target 1 MT 5'PFS UCC 3'PFS ACU (mixed) RNA 1: CACCCGUGCAAAAAUGCAGGGGUCUAAAACUGAGCGGAUAACCUCUCUAUGG RNA 2: GGGAAUGGAUCCACAUCUACGAAUUCUCCCCAUAGAGAGGUUAUCCGCUCAACUAGAUCGGAAGAGCACACGU | 14 ± 5
target 1 MT 5'PFS CCU 3'PFS UCG (mixed) RNA 1: CACCCGUGCAAAAAUGCAGGGGUCUAAAACUGAGCGGAUAACCUCUCUAUGG RNA 2: GGGAAUGGAUCCACAUCUACGAAUUCCCUCCAUAGAGAGGUUAUCCGCUCAUCGAGAUCGGAAGAGCACACGU | 14.2 ± 4.1
target 1 MT 5'PFS GGC 3'PFS UGG (mixed) RNA 1: CACCCGUGCAAAAAUGCAGGGGUCUAAAACUGAGCGGAUAACCUCUCUAUGG RNA 2: GGGAAUGGAUCCACAUCUACGAAUUCGGCCCAUAGAGAGGUUAUCCGCUCAUGGAGAUCGGAAGAGCACACGU | ~60
target 1 MT 5'PFS GGC 3'PFS UGA (mixed) RNA 1: CACCCGUGCAAAAAUGCAGGGGUCUAAAACUGAGCGGAUAACCUCUCUAUGG RNA 2: GGGAAUGGAUCCACAUCUACGAAUUCGGCCCAUAGAGAGGUUAUCCGCUCAUGAAGAUCGGAAGAGCACACGU | 11.7 ± 1.45
target 1 MT 5'PFS UCC 3'PFS ACG (mixed) RNA 1: CACCCGUGCAAAAAUGCAGGGGUCUAAAACUGAGCGGAUAACCUCUCUAUGG RNA 2: GGGAAUGGAUCCACAUCUACGAAUUCUCCCCAUAGAGAGGUUAUCCGCUCAACGAGAUCGGAAGAGCACACGU | ~71.5
target 1 insC 3' of 20,insU 3' of 2 (mixed) RNA 1: CACCCGUGCAAAAAUGCAGGGGUCUAAAACUGAGCGGAUAACCUCUCUAUGG RNA 2: GGGAAUGGAUCCACAUCUACGAAUUCGUACCACUAGAGAGGUUAUCCGCUCUACCGAGAUCGGAAGAGCACACGU | 14.7 ± 1
target 1 MT 5'PFS AAA 3'PFS UGU (mixed) RNA 1: CACCCGUGCAAAAAUGCAGGGGUCUAAAACUGAGCGGAUAACCUCUCUAUGG RNA 2: GGGAAUGGAUCCACAUCUACGAAUUCAAACCAUAGAGAGGUUAUCCGCUCAUGUAGAUCGGAAGAGCACACGU | 40.5 ± 14.5
target 1 MT 5'PFS AAA 3'PFS UGA (mixed) RNA 1: CACCCGUGCAAAAAUGCAGGGGUCUAAAACUGAGCGGAUAACCUCUCUAUGG RNA 2: GGGAAUGGAUCCACAUCUACGAAUUCAAACCAUAGAGAGGUUAUCCGCUCAUGAAGAUCGGAAGAGCACACGU | 20.1 ± 3.45
target 1 MT 5'PFS UUG 3'PFS CCU (mixed) RNA 1: CACCCGUGCAAAAAUGCAGGGGUCUAAAACUGAGCGGAUAACCUCUCUAUGG RNA 2: GGGAAUGGAUCCACAUCUACGAAUUCUUGCCAUAGAGAGGUUAUCCGCUCACCUAGAUCGGAAGAGCACACGU | 19.6 ± 4.1
